One may read the EC50 as the concentration that produces a half-maximal response.

Here are results for six molecules from patent US20170152308A1.

Residue numbers refer to the chain shown, from its start.

The labels stand for the following.
B1: NI-205.21G1 (antibody, human IgG1, V domains shown)
VH: QVQLVESGGGVVQPGMSLRLSCAASGFSFSSHGMHWVRQTPGKGLEWLAVISYDASNKSYADSVKGRFTISRDNSKKTLYLQMDSLRVEDTALYYCANAFSSSASGGYWGQGTLVTVSS
VL: DVVMTQSPLSLPVTLGQPASISCRSSQSLVHSDGVTYLNWFQQRPGQSPRRLIYKVSNRDSGVPDRFSGSGSGTDFTLEISRVEAEDVGIYYCMQGTHWPPWTFGQGTKVEIK
B2: NI-205.68G5 (antibody, human IgG1, V domains shown)
VH: QVQLVESGGGVVQPGRSLRLSCAASGFTFSSYGMHWVRQAPGKGLEWVAIIYYDSSQRYYADSVKGRFTISRDNSKNALYLQMNSLRAEDTALYYCARDLPFHYHRSASFAPSDTWGQGTLVTVSS
VL: EIVLTQSPGTLSLSPGERATLSCRASQAVTNNYLAWYQQKPGQAPRLLVYAASSRATGIPDRFYGSGSGADFTLTISRLEPEDFAVYYCQQYGTSPITFGQGTRLEIK
B3: NI-205.8F8 (antibody, human IgG1, V domains shown)
VH: EVQLLESGGGLVQPGGSLRLSCAASGYTFSYYAMSWVRQAPGKGLEWVSTIGDSGSTTHYADSVKGRFTISRDNSKSTLYLQMNSLRAEDTAVYYCAKGLGPVAAIGDYWGQGTLVTVSS
VL: QSVLTQPPSASGTPGQRVTISCSGSSSNIGSNNVYWYQQLPGTAPKLLVYRNNQRPSGVPDRVSGSKSGSSASLAISGLRSEDEADYYCAAWDDSLRGYVFGTGTKVTVL
B4: NI-205.14H5 (antibody, human IgG1, V domains shown)
VH: EVQLLESGGGLVQPGGSLRLSCAASGFTFRNYAMAWVRQAPGKGLEWVSAIPARGDKTYYADSVRGRFTISRDISKSALYLQMNSLRVEDTAVYYCAKAHHLYNKNFDYWGQGTLVTVSS
VL: EIVLTQSPGTLSLSPGETVTLSCRASQSVSSSNLAWYQQKPGQAPRLLIYGASSRATGIPDRFSGRGSGTDFTLTISRLEPEDFAVYYCQHYGTFGQGTKVDIK
B5: NI-205.58E11 (antibody, human IgG1, V domains shown)
VH: EVQLLESGGGLVQPGGSLRLSCAASGFTFSSYSMSWVRQAPGKGLEWVATVGYGGTIYYADSVKGRFTISRDNSKNTLYLEMNSLRAEATAVYYCAKANYGGNRFGLDVWGQGTTVTVSS
VL: QSALTQPPSASGSPGQSVTISCTGTSSDVGGYNYVSWYQHQPGKAPKLMIYEVSKRPSGVPDRFSGSKSGNTASLTVSGLQAEDEADYYCSSYAGSNNLGVFGTGTEVTVL
B6: NI-205.36D5 (antibody, human IgG1, V domains shown)
VH: B2 VH with G26R, I50L, S55A, S56T, R58K, N84T, E89D, L93V, F102Y, S113A
VL: B2 VL with A28T, V29I, T30S, A85V, T94S

The first experiment deals with synthetic peptide of residues 390-414 of TDP-43 with phosphorylation at residues 409/410 (human). Description: direct ELISA, coated antigen.
Sequence of synthetic peptide of residues 390-414 of TDP-43 with phosphorylation at residues 409/410 (human) (peptide, as listed by the source): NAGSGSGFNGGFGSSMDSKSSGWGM
Regarding B1, the EC50 was found to be 49.5 nM.

Take B2: the EC50 was determined as 16.9 nM.

Take B3: the 50% effective concentration (EC50) was determined as 5.1 nM.

In turn, B4 yielded an EC50 of 0.9 nM.

On to B5, for which the EC50 stood at 6.9 nM.

For a further experiment the target is unchanged. The experiment can be described thus: direct ELISA, coated antigen; direct ELISA, coated synthetic phospho-409/410 peptide 390-414 (3.3 ug/ml).
B6: the EC50 is 4.3 nM.
